{"source": "paper PMC3168947", "about": "(Molecular cell, 2011)", "key": {"^ΔLClpA6": {"system": "^ΔLClpA6", "test": "Binding of ClpS*^F to ^ΔLClpA6, with or without peptide", "parameters": "species or system E. coli", "details": "20 μM LLYVQRDSKEC; Fig. 3E; in words"}, "ClpA6": {"target": "ClpA6 (Escherichia coli, UniProt P0A8Q6+P0ABH9, C101S/C73V/E96C)", "type": "binding, E. coli"}, "[1]": {"target": "T1, ClpS adaptor (intact, wild type) (E. coli, UniProt P0A8Q6 1-106)", "T1 sequence (looked up)": "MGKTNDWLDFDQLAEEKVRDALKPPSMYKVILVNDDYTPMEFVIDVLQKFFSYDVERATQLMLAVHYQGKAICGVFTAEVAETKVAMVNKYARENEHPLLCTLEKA", "test": "fluorescence polarisation"}, "[2]": {"target": "T2, ClpS^core (E. coli ClpS residues 26-106) (E. coli, UniProt P0A8Q6 26-106)", "T2 sequence (looked up)": "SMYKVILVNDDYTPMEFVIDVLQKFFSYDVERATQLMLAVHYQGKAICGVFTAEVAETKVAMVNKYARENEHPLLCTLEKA", "test": "fluorescence polarisation"}, "D20 ClpS with ClpA6": {"target": "T3, D20 ClpS with ClpA6 (E. coli, UniProt P0ABH9 1-758; P0A8Q6 20-106)", "T3 sequence (looked up) 1": "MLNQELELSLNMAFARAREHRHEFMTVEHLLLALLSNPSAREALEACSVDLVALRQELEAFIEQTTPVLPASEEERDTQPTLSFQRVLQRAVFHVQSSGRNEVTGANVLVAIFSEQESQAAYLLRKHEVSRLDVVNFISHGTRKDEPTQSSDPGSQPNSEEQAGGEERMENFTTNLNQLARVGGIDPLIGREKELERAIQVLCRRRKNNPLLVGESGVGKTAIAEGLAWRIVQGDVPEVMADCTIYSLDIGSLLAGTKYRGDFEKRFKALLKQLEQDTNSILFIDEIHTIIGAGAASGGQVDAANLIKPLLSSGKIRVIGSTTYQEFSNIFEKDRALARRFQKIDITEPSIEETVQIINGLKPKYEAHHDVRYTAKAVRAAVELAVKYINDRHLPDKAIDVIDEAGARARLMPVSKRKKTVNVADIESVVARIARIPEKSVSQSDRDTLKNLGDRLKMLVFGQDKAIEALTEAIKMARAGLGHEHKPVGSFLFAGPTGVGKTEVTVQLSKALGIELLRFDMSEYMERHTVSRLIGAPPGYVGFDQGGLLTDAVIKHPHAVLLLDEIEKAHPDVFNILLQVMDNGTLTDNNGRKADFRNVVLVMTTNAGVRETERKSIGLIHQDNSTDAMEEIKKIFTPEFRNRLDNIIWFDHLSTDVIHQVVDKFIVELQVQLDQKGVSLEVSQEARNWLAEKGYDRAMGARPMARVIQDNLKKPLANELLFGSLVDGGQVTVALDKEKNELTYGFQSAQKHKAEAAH", "T3 sequence (looked up) 2": "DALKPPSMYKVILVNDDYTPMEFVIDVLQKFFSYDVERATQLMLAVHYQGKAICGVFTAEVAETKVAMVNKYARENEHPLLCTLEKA", "test": "fluorescence polarisation"}, "ClpS-ClpA6 complex": {"target": "T4, ClpS-ClpA6 complex (E. coli, UniProt P0ABH9 1-758; P0A8Q6 1-106)", "T4 sequence (looked up) 1": "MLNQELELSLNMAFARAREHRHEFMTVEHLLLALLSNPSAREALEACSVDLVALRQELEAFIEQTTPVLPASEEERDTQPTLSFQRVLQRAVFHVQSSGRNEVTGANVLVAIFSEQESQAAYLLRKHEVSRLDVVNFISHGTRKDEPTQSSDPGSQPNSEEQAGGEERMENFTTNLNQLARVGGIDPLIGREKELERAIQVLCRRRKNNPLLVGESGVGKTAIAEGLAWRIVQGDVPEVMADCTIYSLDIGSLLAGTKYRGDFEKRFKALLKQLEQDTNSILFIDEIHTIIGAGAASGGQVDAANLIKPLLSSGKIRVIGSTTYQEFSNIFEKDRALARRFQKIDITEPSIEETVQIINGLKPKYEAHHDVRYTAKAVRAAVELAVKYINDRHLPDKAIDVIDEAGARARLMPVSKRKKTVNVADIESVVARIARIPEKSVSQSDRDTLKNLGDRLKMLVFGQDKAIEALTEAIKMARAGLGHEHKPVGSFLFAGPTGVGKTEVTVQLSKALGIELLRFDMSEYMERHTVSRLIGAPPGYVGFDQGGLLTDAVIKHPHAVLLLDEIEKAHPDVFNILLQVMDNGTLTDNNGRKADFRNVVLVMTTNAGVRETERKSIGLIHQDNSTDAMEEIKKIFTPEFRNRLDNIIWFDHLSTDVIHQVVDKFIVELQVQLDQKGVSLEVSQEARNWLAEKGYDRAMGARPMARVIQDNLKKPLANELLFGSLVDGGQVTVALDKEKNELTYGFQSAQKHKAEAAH", "T4 sequence (looked up) 2": "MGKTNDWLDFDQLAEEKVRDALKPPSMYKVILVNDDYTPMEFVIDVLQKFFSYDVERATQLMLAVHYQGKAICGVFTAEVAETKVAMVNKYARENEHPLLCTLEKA", "test": "fluorescence polarisation"}, "L22 ClpS with ClpA6": {"target": "T5, L22 ClpS with ClpA6 (E. coli, UniProt P0ABH9 1-758; P0A8Q6 22-106)", "T5 sequence (looked up) 1": "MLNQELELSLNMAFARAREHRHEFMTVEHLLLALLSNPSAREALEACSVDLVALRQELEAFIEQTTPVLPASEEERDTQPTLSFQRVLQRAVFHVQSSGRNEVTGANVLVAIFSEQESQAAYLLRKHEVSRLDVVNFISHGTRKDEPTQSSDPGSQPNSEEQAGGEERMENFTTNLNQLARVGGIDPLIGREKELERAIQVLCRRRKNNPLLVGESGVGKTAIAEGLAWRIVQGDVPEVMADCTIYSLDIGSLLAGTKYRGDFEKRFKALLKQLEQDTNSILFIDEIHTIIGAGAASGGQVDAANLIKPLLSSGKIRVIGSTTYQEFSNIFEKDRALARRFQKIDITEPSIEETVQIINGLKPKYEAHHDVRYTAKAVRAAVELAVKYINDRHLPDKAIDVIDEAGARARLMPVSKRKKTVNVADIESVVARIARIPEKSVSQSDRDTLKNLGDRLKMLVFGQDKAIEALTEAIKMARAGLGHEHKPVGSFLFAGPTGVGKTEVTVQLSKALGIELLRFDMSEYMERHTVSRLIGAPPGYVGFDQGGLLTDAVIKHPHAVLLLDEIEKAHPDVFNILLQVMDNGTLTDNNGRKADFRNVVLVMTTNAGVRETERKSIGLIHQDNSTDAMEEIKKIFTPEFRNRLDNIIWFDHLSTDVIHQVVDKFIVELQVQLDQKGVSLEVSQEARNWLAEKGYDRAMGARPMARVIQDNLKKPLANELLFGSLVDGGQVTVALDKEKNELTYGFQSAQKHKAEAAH", "T5 sequence (looked up) 2": "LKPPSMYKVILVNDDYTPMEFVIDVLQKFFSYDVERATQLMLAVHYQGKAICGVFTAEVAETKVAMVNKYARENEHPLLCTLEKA", "test": "fluorescence polarisation"}, "[3]": {"target": "T6, ClpA6 (hexameric ClpA unfoldase, stabilised by ATPγS) (E. coli, UniProt P0ABH9 1-758)", "T6 sequence (looked up)": "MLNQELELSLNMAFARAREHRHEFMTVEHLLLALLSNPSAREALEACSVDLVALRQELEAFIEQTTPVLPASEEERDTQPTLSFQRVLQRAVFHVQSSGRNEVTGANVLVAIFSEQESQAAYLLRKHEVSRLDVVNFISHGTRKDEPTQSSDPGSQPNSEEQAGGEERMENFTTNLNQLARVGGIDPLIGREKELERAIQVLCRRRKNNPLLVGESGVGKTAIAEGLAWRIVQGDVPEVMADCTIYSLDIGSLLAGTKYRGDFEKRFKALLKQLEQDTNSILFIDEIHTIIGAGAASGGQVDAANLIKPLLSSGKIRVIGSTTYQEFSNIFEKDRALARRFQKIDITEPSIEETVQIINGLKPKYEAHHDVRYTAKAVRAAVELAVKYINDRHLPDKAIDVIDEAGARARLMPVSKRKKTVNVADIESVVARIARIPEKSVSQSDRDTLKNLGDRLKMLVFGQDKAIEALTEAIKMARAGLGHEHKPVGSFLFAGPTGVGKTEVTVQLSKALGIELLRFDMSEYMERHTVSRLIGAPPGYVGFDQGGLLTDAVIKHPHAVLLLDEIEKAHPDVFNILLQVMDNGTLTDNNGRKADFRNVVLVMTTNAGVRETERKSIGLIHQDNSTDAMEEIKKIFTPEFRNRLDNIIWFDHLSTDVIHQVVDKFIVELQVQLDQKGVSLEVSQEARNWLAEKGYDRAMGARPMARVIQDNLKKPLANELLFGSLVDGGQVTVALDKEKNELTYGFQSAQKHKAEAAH", "test": "fluorescence polarisation"}, "[4]": {"target": "T6, ClpA6 (hexameric ClpA unfoldase, …)", "test": "fluorescence polarisation", "remark": "listed apart in the source"}, "[5]": {"target": "T6, ClpA6 (hexameric ClpA unfoldase, …)", "test": "fluorescence polarisation", "remark": "listed apart in the source"}, "ClpAP [6]": {"system": "ClpAP", "details": "H66A mutation; in words; ref Wang et al., 2008a; cited from earlier work"}, "ClpA": {"system": "ClpA", "test": "FeBABE cleavage of ClpA by FeBABE-modified ^Q12CClpS", "parameters": "species or system E. coli", "details": "SDS-PAGE; in words"}, "ClpAP [7]": {"system": "ClpAP", "details": "ref Dougan et al., 2002; cited from earlier work"}, "ClpAP [8]": {"system": "ClpAP", "test": "ClpAPS degradation of YLFVQELA-GFP", "type": "biochemical, E. coli", "details": "YLFVQELA-GFP degradation; Vmax = Etotal•kdeg/(1+K2); KM = K1•K2/(1+K2); Fig. 4B"}, "crystal structure": {"target": "the molecule itself", "test": "crystal structure"}}, "note": "Like-named read-outs stand apart in the source and are kept apart here. No end group written: not given here."}
{"molecule": "LLYVQRDSKEC", "values": [{"measurement": "enhancement of ClpS*^F binding to ^ΔLClpA6 by N-end-rule peptide", "setting": "^ΔLClpA6", "result": "enhanced binding of ClpS*^F to ClpA6 but not to ^ΔLClpA6"}, {"measurement": "ClpA6 bound ClpS*^F more tightly, fold", "setting": "ClpA6; excess peptide, compared with MLYVQRDSKEC peptide or absence of ligand", "result": "at least 9 fold"}, {"measurement": "Kapp of ClpA6 for ClpS*^F in presence of peptide", "setting": "ClpA6; fluorescence anisotropy, 200 nM ClpS*^F, 20 μM peptide, ATPγS, Fig. 3A", "result": "< 20", "unit": "nM"}]}
{"molecule": "LLYVQRDSKEC(fluorescein maleimide)", "note": "[fluorescent N-end-rule peptide LLYVQRDSKEC-fl]", "values": [{"measurement": "Kd", "setting": "[1]", "result": "~3000", "unit": "nM"}, {"measurement": "Kd", "setting": "[2]", "result": "~3000", "unit": "nM"}, {"measurement": "Kd", "setting": "D20 ClpS with ClpA6", "result": 130, "unit": "nM"}, {"measurement": "Kd", "setting": "ClpS-ClpA6 complex", "result": 43, "unit": "nM"}, {"measurement": "Kd", "setting": "L22 ClpS with ClpA6", "result": 290, "unit": "nM"}]}
{"molecule": "ClpS*^F (ClpS C73V; C101S; E96C labelled with fluorescein) (natural protein, E. coli, UniProt P0A8Q6 1-106, looked up, fluorescein maleimide on the single cysteine) MGKTNDWLDFDQLAEEKVRDALKPPSMYKVILVNDDYTPMEFVIDVLQKFFSYDVERATQLMLAVHYQGKAIVGVFTAEVAETKVAMVNKYARENCHPLLSTLEKA", "values": [{"measurement": "Kd", "setting": "[3]", "result": "< 20", "unit": "nM"}, {"measurement": "Kd", "setting": "[4]", "result": "200 ± 6", "unit": "nM"}, {"measurement": "Kd", "setting": "[5]", "result": "~180", "unit": "nM"}]}
{"molecule": "H66A: H66A mutation of ClpS (protein, UniProt P0A8Q6 1-106, looked up, variant H66A) ATP-dependent Clp protease …: MGKTNDWLDFDQLAEEKVRDALKPPSMYKVILVNDDYTPMEFVIDVLQKFFSYDVERATQLMLAVAYQGKAICGVFTAEVAETKVAMVNKYARENEHPLLCTLEKA", "values": [{"measurement": "KM and Vmax for ClpAP degradation of N-end-rule substrates", "setting": "ClpAP [6]", "result": "increased KM and reduced Vmax"}]}
{"molecule": "^Q12CClpS: Q12C ClpS variant, FeBABE attached to residue 12 (protein, UniProt P0A8Q6 1-106, looked up, variant Q12C, FeBABE attached at Cys12) ATP-dependent Clp protease …: MGKTNDWLDFDCLAEEKVRDALKPPSMYKVILVNDDYTPMEFVIDVLQKFFSYDVERATQLMLAVHYQGKAICGVFTAEVAETKVAMVNKYARENEHPLLCTLEKA", "values": [{"measurement": "FeBABE cleavage requirement", "setting": "ClpA", "result": "cleavage of ClpA required FeBABE-modified ^Q12CClpS and ATPγS"}]}
{"molecule": "ClpS: E. coli ClpS adaptor; folded core (residues 26-106) and N-terminal extension (residues 1-25) (protein, UniProt P0A8Q6 1-106, looked up) ATP-dependent Clp protease …: MGKTNDWLDFDQLAEEKVRDALKPPSMYKVILVNDDYTPMEFVIDVLQKFFSYDVERATQLMLAVHYQGKAICGVFTAEVAETKVAMVNKYARENEHPLLCTLEKA", "values": [{"measurement": "degradation by ClpAP", "setting": "ClpAP [7]", "result": "does not degrade"}, {"measurement": "K2 (unimolecular engagement step, global fit)", "setting": "ClpAP [8]", "result": 0.37}]}
{"molecule": "E. coli ClpS residues 2-106 (crystals of Schuenemann et al., 2009, re-refined here) (natural protein, UniProt P0A8Q6 2-106, looked up) GKTNDWLDFDQLAEEKVRDALKPPSMYKVILVNDDYTPMEFVIDVLQKFFSYDVERATQLMLAVHYQGKAICGVFTAEVAETKVAMVNKYARENEHPLLCTLEKA", "values": [{"measurement": "binding result", "setting": "crystal structure", "result": "binds"}]}
